{
  "source": "paper PMC6193675",
  "target": "VRC01",
  "assay": "FACS; competition with YU2 gp120dsm for 3 nM VRC01",
  "data": [
    {"substance": "Bal gp120", "values": [
      {"measurement": "Ki", "value": 5, "unit": "nM"}
    ]}
  ]
}
